Values of other authors in article PMC11747410.
Read-outs that look alike come from different tables or passages of the source.

Assays:
[1] = target: CD166/ALCAM (Homo sapiens) (UniProt Q13740)
[2] = target: CD166/ALCAM (Homo sapiens) (UniProt Q13740); remark: listed apart in the source

Kd [1] [µM] | Kd [2] [µM] | Substance
0.7 | – | CD6 (from UniProt P30203)
– | 38.5 | CD166/ALCAM (from UniProt Q13740)
